Test results reported in patent publication US20150368613.

System: Meis1

Substance: MYC-CUL4A
- steady-state levels (immunoblot): the HOX co-factor Meis1 was not subjected to CUL4A-mediated degradation
